Columns and labels:
[1] = target: T1, recombinant hCTLA-4-mFc (human CTLA-4 extracellular domain with a C-terminal Fc portion of mouse IgG2a) (human); test: competition ELISA, 400 pM hCTLA-4-mFc on plate-coated hB7-2-hIgG1-6His
T1 construct: also called dimeric CTLA-4 protein

[2] = target: T1, recombinant hCTLA-4-mFc (human CTLA-4 …); test: competition ELISA, 200 pM hCTLA-4-mFc on plate-coated hB7-1-hIgG1-6His
[3] = target: T2, soluble human CTLA-4 expressed with a C-terminal myc-myc-polyhistidine tag (human); test: SPR, mAb capture, 25 C
T2 construct: soluble protein; also called hCTLA-4.mmh; hCTLA4.mmh

[4] = target: T3, human CTLA-4 (amino acids M1-N223) on stably transfected VI-fibroblast cells (human, UniProt P16410 36-223); test: ECL cell binding, VI-fibroblast/hCTLA-4 cells;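 also: antibodies bound to the cells on carbon electrode plates, detected via SULFO-TAG anti-IgG secondary (1 h, RT), electrochemiluminescence read as RLU over a concentration range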
T3 construct: also called VI-fibroblast/hCTLA-4
T3 sequence (P16410 36-223 limits assumed): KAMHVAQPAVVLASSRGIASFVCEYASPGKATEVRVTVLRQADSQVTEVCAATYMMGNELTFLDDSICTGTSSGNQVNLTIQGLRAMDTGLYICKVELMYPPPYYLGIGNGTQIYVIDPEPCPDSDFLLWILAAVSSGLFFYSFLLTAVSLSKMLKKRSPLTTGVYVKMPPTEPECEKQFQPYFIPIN

T1 sequence (chain, as listed by the source limits assumed): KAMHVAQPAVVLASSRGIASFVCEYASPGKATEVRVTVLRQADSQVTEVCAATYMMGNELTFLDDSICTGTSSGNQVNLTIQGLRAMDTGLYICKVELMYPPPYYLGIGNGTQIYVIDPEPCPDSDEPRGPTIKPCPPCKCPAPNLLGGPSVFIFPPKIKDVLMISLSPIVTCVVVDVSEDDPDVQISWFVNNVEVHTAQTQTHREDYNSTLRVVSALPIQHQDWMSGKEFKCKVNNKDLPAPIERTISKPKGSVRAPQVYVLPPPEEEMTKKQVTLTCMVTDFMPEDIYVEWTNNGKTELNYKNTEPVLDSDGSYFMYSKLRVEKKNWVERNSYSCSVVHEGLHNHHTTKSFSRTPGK

Row | % Blockade [1] | % Blockade [2] | Kd [3] | koff [3] | kon [3] | t1/2 [3] | EC50 [4] | ratio of RLU signal to parental VI-fibroblast at 0.6 nM Ab [4] | IC50 [1] | IC50 [2] | Binder
1 | 29% | 13% | 66.5 nM | 0.00279 s⁻¹ | 41900 M⁻¹ s⁻¹ | 4.1 min |  |  |  |  | H1H20375N (antibody, human IgG1, V domains shown, here with human IgG1 Fc (H1H)) VH: QLQLQESGPGLVKPSETLSFTCTVSGGSISSNYYYWGWVRQSPGKGLEWIGSIYHTGNAYDNPSLKSRVTISVDTSKNQFSLNLNSVTAADTAIYYCARHHSSSSWWYFDVWGRGTLVIVSS VL: EIVLTQSPDTLSLSPGERATLSCRASQTVSNSHLAWYQQKPGQAPRLLIYGTSSRATGIPDRFSGSGSGTDFSLTIIRLEPDDFAVYFCQQHESSPPTFGQGAKLEIK
2 |  |  |  |  |  |  | 0.19 nM | 18 ratio |  |  | H2M20375N (antibody, mouse IgG2, V domains shown, hybridoma antibody, human variable domains, mouse IgG2 Fc (H2M)) VH: QLQLQESGPGLVKPSETLSFTCTVSGGSISSNYYYWGWVRQSPGKGLEWIGSIYHTGNAYDNPSLKSRVTISVDTSKNQFSLNLNSVTAADTAIYYCARHHSSSSWWYFDVWGRGTLVIVSS VL: EIVLTQSPDTLSLSPGERATLSCRASQTVSNSHLAWYQQKPGQAPRLLIYGTSSRATGIPDRFSGSGSGTDFSLTIIRLEPDDFAVYFCQQHESSPPTFGQGAKLEIK
3 | 96% | 94% | 10.5 nM | 0.00194 s⁻¹ | 185000 M⁻¹ s⁻¹ | 6 min |  |  | 7.7 nM | 18 nM | H1H20386N (antibody, human IgG1, V domains shown, here with human IgG1 Fc (H1H)) VH: QVQLVESGGGVVQPGRSLRLSCAASGFTVNRYGIHWVRQAPGKGLEWVAVTWYDGRNKYFADSVKGRFSFSRDSSTNTLYLQMNSLRAEDTAVYYCARGGLFGYFDYWGQGTLVTVSS VL: EIVLTQSPDTLSLSPGERATLSCRASQSVAGSYLAWYQQKPGQAPRLLIYGASSRATGIPDRFSGSGSGTDFTLTISRLEPEDFAVYYCQQYGTSPWTFGQGTKVEIT
4 |  |  |  |  |  |  |  | 3 ratio |  |  | H2M20386N (antibody, mouse IgG2, V domains shown, hybridoma antibody, human variable domains, mouse IgG2 Fc (H2M)) VH: QVQLVESGGGVVQPGRSLRLSCAASGFTVNRYGIHWVRQAPGKGLEWVAVTWYDGRNKYFADSVKGRFSFSRDSSTNTLYLQMNSLRAEDTAVYYCARGGLFGYFDYWGQGTLVTVSS VL: EIVLTQSPDTLSLSPGERATLSCRASQSVAGSYLAWYQQKPGQAPRLLIYGASSRATGIPDRFSGSGSGTDFTLTISRLEPEDFAVYYCQQYGTSPWTFGQGTKVEIT
5 |  |  |  |  |  |  |  | 3 ratio |  |  | H2M20387N (antibody, mouse IgG2, V domains shown, hybridoma antibody, human variable domains, mouse IgG2 Fc (H2M)) VH: QVQLVESGGGVVQPGRSLRLSCAASGFTFSSYGIHWVRQAPGKGLEWVAVIWYGGNNKYYADSVKGRFTISRDNSKNTLYLQMNSLRAEDTALYHCARSGNFGAFDIWGQGTMVTVSS VL: EIVLTQSPGTLSLSPGERATLSCRASQSVSSYLAWYQQKPGQAPRLLIYGASSRATGIPDRFSGSGSGTDFILTINRLEPEDFAVYYCQHYGNSPWTFGQGTKVEIK
6 | 98% | 98% | 4.55 nM | 0.000367 s⁻¹ | 80500 M⁻¹ s⁻¹ | 31.5 min |  |  | 0.99 nM | 2.5 nM | H1H20372N (antibody, human IgG1, V domains shown, here with human IgG1 Fc (H1H)) VH: EVQLVESGGGLVQPGRSLRLSCAGTGFIFDDYAMHWVRQAPGKGLEWVSGISWNSNSLGYADSVKGRFTISRDNAKKSLYLQMSSLRAEDTALYYCVKDVTRLELRGFLDYWGQGTQVTVSS VL: DIQMTQSPSSLSASVGDRVTITCRASQDIRNDLGWHQQKSGKAPKSLIYAASSLQSGAPSRFSGSGSGTEFTLTISSLQPEDSATYYCLQQNSYPPTFGQGTKVEIK
7 |  |  |  |  |  |  | 0.88 nM | 14 ratio |  |  | H1M20372N (antibody, mouse IgG1, V domains shown, hybridoma antibody, human variable domains, mouse IgG1 Fc (H1M)) VH: EVQLVESGGGLVQPGRSLRLSCAGTGFIFDDYAMHWVRQAPGKGLEWVSGISWNSNSLGYADSVKGRFTISRDNAKKSLYLQMSSLRAEDTALYYCVKDVTRLELRGFLDYWGQGTQVTVSS VL: DIQMTQSPSSLSASVGDRVTITCRASQDIRNDLGWHQQKSGKAPKSLIYAASSLQSGAPSRFSGSGSGTEFTLTISSLQPEDSATYYCLQQNSYPPTFGQGTKVEIK
8 | 91% | 22% | 0.766 nM | 0.000401 s⁻¹ | 523000 M⁻¹ s⁻¹ | 28.8 min |  |  | 34 nM |  | H1H20373N (antibody, human IgG1, V domains shown, here with human IgG1 Fc (H1H)) VH: EVQLLESGGGLVQPGGSLRLSCAASGFTFSSYAMSWVRQAPGKGLEWVSDISGSGLSTYYADSVKGRFAISRDNSKNMLYLQMNRLRAEDTAVYYCAKEPSHWNGEAFDIWGQGTMVTVSS VL: DIQMTQSPSSVSASVGDRVTITCRASQDISSWLAWYQQKPGKAPKLLIYTTANLQSGVPSRFSGSGSGTDFTLTISSLQSEDFATYYCQQANSFPFTFGSGTKVDIK
9 |  |  |  |  |  |  | 0.062 nM | 22 ratio |  |  | H2M20373N (antibody, mouse IgG2, V domains shown, hybridoma antibody, human variable domains, mouse IgG2 Fc (H2M)) VH: EVQLLESGGGLVQPGGSLRLSCAASGFTFSSYAMSWVRQAPGKGLEWVSDISGSGLSTYYADSVKGRFAISRDNSKNMLYLQMNRLRAEDTAVYYCAKEPSHWNGEAFDIWGQGTMVTVSS VL: DIQMTQSPSSVSASVGDRVTITCRASQDISSWLAWYQQKPGKAPKLLIYTTANLQSGVPSRFSGSGSGTDFTLTISSLQSEDFATYYCQQANSFPFTFGSGTKVDIK
10 | 96% | 95% | 3.43 nM | 0.000588 s⁻¹ | 172000 M⁻¹ s⁻¹ | 19.6 min |  |  | 0.99 nM | 0.86 nM | H1H20370N (antibody, human IgG1, V domains shown, here with human IgG1 Fc (H1H)) VH: QVQLHESGPGLVKPSQTLSLTCSVSGGSISNGGYYWSWIRQHPGQGLEWIGYIYYIGNTYYNPSLESRVTMSIDTSKNQFSLKLSSVTAADTAIYYCARQEFVPGAEYFLHWGQGILVTVSS VL: DIRMTQSPSSLSASVGDRVTITCRASQTVNTFLNWYQQKPGKAPKLLIFGASSLQSGVPSRFSGSGSGTDFTLTISGLQPEDFAIYYCQQSYSVPPITFGQGTRLEIE
11 |  |  |  |  |  |  | 0.22 nM | 23 ratio |  |  | H1M20370N (antibody, mouse IgG1, V domains shown, hybridoma antibody, human variable domains, mouse IgG1 Fc (H1M)) VH: QVQLHESGPGLVKPSQTLSLTCSVSGGSISNGGYYWSWIRQHPGQGLEWIGYIYYIGNTYYNPSLESRVTMSIDTSKNQFSLKLSSVTAADTAIYYCARQEFVPGAEYFLHWGQGILVTVSS VL: DIRMTQSPSSLSASVGDRVTITCRASQTVNTFLNWYQQKPGKAPKLLIFGASSLQSGVPSRFSGSGSGTDFTLTISGLQPEDFAIYYCQQSYSVPPITFGQGTRLEIE
12 |  |  |  |  |  |  | 7.3 nM | 12 ratio |  |  | H1M20393N (antibody, V domains shown, hybridoma antibody, human variable domains, mouse IgG1 Fc (H1M)) VH: DRQMVESGGGVVQPGRSLRLSCIASGFIISRYGMHWVRQAPGKGLEWVAVIWYDGRNKNYADSVKGRFTISRDNSKNTLYLEMNSLRAEDTAVYYCGRVHQFGAFDIWGQGTMVTVSS VL: not shown
13 |  |  |  |  |  |  | 0.9 nM | 18 ratio |  |  | H2M20369N (antibody, mouse IgG2, V domains shown, hybridoma antibody, human variable domains, mouse IgG2 Fc (H2M)) VH: QVQLVQSGTEVKRPGASVKVSCKASGFTFTGYYIYWVRQAPGEGLEWMGWINPHSGGTKYAQKFQGRVTLTRDTSINTAYLDLISLRSDDTAVYYCARIGGGGYSSYFDYWGQGTLVTVSS VL: DIQLTQSPSSLSASVGDRVTITCRASQTISTYLNWYQQKPGNAPKLLIYAASSLQSGVPSRFSGRGSGTDFTLTISSLQPEDFATYYCQQGYTTPPITFGQGTRLEIK
14 |  |  |  |  |  |  | 5.5 nM | 8 ratio |  |  | H2M20385N (antibody, mouse IgG2, V domains shown, hybridoma antibody, human variable domains, mouse IgG2 Fc (H2M)) VH: QVQLVQSGAEVKKPGASVKVSCKTSGYTFTNNGISWVRQVPGQGLEWMGWISPYNGNTKYAQKFQGRVTMTTDTSTTTVYMDVRSLRSDDTAVYFCARDGPITISYFGMDVWGQGTTVTVSS VL: DIQMTQSPSSLSASVGDRVTITCRASQSISTYLNWYQQKPGKAPKLLIYAASTLQSGVPSRFGGSGSGTDFTLTVSSLQPEDFATYYCQQSYSTPPITFGQGTRLEIN
15 | 82% | 73% | 32.1 nM | 0.00199 s⁻¹ | 62100 M⁻¹ s⁻¹ | 5.8 min |  |  | 65 nM | 69 nM | H1H20361N (antibody, human IgG1, V domains shown, here with human IgG1 Fc (H1H)) VH: QVQLQESGPGLVKPSQTLSLTCTVSGGSINNGGHYWTWIRQHPGKGLEWIGYIYYIGTTYYNPSLESRLSLSVDTSKNQFSLKLSSVTAADTAIYYCARSSLSVSEAFDVWGQGTMVTVSS VL: DIQMTQSPSSLSASVGDRITITCRGSQNIGSFLSWYQQRPGKAPKLLIFGAYNLQGGVPSRFSGSGSGTDFTLTISSLQPEDFATYFCQQSYSTPPITFGQGTRLEIK
16 |  |  |  |  |  |  | 0.26 nM | 25 ratio |  |  | H2M20368N (antibody, mouse IgG2, V domains shown, hybridoma antibody, human variable domains, mouse IgG2 Fc (H2M)) VH: QVQLQESGPGLVRPSQTLSLTCTVSGGSISNGGYYWTWIRQNPGKGLEWIGYIYYIGTTYYNPSLESRLSLSVDTSKNQFSLKLTSVTAADTAVYYCARSSLAVSEAFDIWGQGTMVTVSS VL: DIQMTQSPSSLSASVGDRFTITCRASQSIGSFLSWYQQKPGKAPKLLIYAASSLQSGVPSRFSGSGSGTDFTLTISSLQPEDFATYYCQQSYNTPPITFGQGTRLEIK
17 |  |  |  |  |  |  | 0.32 nM | 19 ratio |  |  | H2M20361N (antibody, mouse IgG2, V domains shown, hybridoma antibody, human variable domains, mouse IgG2 Fc (H2M)) VH: QVQLQESGPGLVKPSQTLSLTCTVSGGSINNGGHYWTWIRQHPGKGLEWIGYIYYIGTTYYNPSLESRLSLSVDTSKNQFSLKLSSVTAADTAIYYCARSSLSVSEAFDVWGQGTMVTVSS VL: DIQMTQSPSSLSASVGDRITITCRGSQNIGSFLSWYQQRPGKAPKLLIFGAYNLQGGVPSRFSGSGSGTDFTLTISSLQPEDFATYFCQQSYSTPPITFGQGTRLEIK
18 |  |  |  |  |  |  | 0.092 nM | 28 ratio |  |  | H2M20379N (antibody, mouse IgG2, V domains shown, hybridoma antibody, human variable domains, mouse IgG2 Fc (H2M)) VH: QVQLVESGGGVVQPGRSLRLSCAASGITFSSYGMHWVRQAPGKGLEWVALTSYDGSKKYYSDSVKGRFTISRDNSKNTLYLQMNSLRPEDTAVYYCAKDKGGDDYYGMDVWGQGTTVTVSS VL: EIVLTQSPGTLSLSPGERATLSCRASQWISSSYLAWYQQKPGQAPRLLIYGAFSRAPGIPGRFSGSGSGTDFTLTISRLEPEDFAVYYCQQYGSSPYTFGQGTKLEIN
